# Assay results reported in PMC3184176.
# Where a chain is given by its changes, count along the chain named.
# T1: Pot1-DBD (Schizosaccharomyces pombe, UniProt O13988 1-389)
# T1 sequence: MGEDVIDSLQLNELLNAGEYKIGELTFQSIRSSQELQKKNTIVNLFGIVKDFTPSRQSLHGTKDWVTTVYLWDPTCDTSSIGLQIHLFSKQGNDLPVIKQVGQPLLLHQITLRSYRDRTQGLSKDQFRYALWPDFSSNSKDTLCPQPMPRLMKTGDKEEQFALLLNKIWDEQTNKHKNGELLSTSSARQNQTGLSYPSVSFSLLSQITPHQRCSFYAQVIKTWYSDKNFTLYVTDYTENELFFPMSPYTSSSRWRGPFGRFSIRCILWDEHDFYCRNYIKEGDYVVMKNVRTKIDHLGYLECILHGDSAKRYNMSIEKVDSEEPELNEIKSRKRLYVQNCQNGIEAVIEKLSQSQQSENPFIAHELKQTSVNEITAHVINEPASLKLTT
# T2: Pot1-DBD_L122A (Schizosaccharomyces pombe, UniProt O13988 1-389, L122A)
# T2 sequence: T1 sequence with L122A
# T3: Pot1-DBD_S123A (Schizosaccharomyces pombe, UniProt O13988 1-389, S123A)
# T3 sequence: T1 sequence with S123A
# T4: Pot1-DBD_D64A (Schizosaccharomyces pombe, UniProt O13988 1-389, D64A)
# T4 sequence: T1 sequence with D64A
# T5: Pot1-DBD_F88A (Schizosaccharomyces pombe, UniProt O13988 1-389, F88A)
# T5 sequence: T1 sequence with F88A
# T6: Pot1-DBD_Y115A (Schizosaccharomyces pombe, UniProt O13988 1-389, Y115A)
# T6 sequence: T1 sequence with Y115A
# T7: FL-Pot1 (Schizosaccharomyces pombe, UniProt O13988 1-555)
# T7 sequence: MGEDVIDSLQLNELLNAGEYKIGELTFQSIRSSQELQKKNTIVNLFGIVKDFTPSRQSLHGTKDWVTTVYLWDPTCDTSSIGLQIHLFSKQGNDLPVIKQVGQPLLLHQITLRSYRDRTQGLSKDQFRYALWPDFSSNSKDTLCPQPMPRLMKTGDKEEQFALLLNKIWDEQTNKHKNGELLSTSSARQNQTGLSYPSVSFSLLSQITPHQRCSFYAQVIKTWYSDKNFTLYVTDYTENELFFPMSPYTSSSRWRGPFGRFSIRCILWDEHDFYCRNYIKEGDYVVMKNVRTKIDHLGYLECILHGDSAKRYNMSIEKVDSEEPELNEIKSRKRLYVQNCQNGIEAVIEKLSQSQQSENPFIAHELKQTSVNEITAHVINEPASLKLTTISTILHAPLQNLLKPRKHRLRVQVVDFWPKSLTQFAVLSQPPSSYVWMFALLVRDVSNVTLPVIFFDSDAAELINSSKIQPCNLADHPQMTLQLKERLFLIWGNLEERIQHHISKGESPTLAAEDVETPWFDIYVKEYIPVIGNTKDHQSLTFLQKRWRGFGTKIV
# T8: Pot1-DBD_T62A (Schizosaccharomyces pombe, UniProt O13988 1-389, T62A)
# T8 sequence: T1 sequence with T62A
# Molecular target: T1, Pot1-DBD
# Assay: EMSA
row,Binder,Kd
1,GGTTACGGTTAC (ssDNA) [12mer],4 ± 0.3 pM
2,GGTTACGGTTACGGT (ssDNA) [15mer],2.9 ± 0.3 pM

# Molecular target: T2, Pot1-DBD_L122A
# Assay: EMSA
row,Binder,Kd
1,GGTTACGGTTAC (ssDNA) [12mer],770 ± 230 pM
2,GGTTACGGTTACGGT (ssDNA) [15mer],10 ± 1.4 pM

# Molecular target: T3, Pot1-DBD_S123A
# Assay: EMSA
row,Binder,Kd
1,GGTTACGGTTAC (ssDNA) [12mer],8.2 ± 0.9 pM
2,GGTTACGGTTACGGT (ssDNA) [15mer],3.7 ± 0.3 pM

# Molecular target: T4, Pot1-DBD_D64A
# Assay: EMSA
row,Binder,Kd
1,GGTTACGGTTAC (ssDNA) [12mer],3400 ± 670 pM
2,GGTTACGGTTACGGT (ssDNA) [15mer],18 ± 2.4 pM

# Molecular target: T5, Pot1-DBD_F88A
# Assay: EMSA
row,Binder,Kd
1,GGTTACGGTTAC (ssDNA) [12mer],7700 ± 1800 pM
2,GGTTACGGTTACGGT (ssDNA) [15mer],120 ± 30 pM

# Molecular target: T6, Pot1-DBD_Y115A
# Assay: EMSA
row,Binder,Kd
1,GGTTACGGTTAC (ssDNA) [12mer],49 ± 5 pM
2,GGTTACGGTTACGGT (ssDNA) [15mer],8 ± 0.7 pM

# Molecular target: T7, FL-Pot1
# Assay: EMSA
row,Binder,Kd
1,GGTTACGGTTAC (ssDNA) [12mer],2.8 ± 0.4 pM
2,GGTTACGGTTACG (ssDNA) [13mer],2.3 ± 0.3 pM
3,"GGUTACGGTTACGGT (ssDNA, U at 3 = deoxyuridine) [15_T3U]",2.6 ± 0.2 pM
4,"GGTUACGGTTACGGT (ssDNA, U at 4 = deoxyuridine) [15_T4U]",3 ± 0.4 pM
5,TTTTTTTTTTTTTTT (ssDNA) [T15],8600 ± 1900 pM
6,GGTTACGGTTACGG (ssDNA) [14mer],2.4 ± 0.4 pM
7,GGTTACTTTTTT (ssDNA) [6mer_T6],3.2 ± 0.3 pM
8,GGTTACTTTTTTTTT (ssDNA) [6mer_T9],2.6 ± 0.2 pM
9,GGTTACCCAATG (ssDNA) [6mer_6 comp],9.5 ± 0.3 pM
10,GGTTACCCAATGCCA (ssDNA) [6mer_9 comp],3.8 ± 0.1 pM
11,CGTTTGCCAATGCCA (ssDNA) [15 comp GTT],10600 ± 300 pM
12,GGTTACGGTTACGGT (ssDNA) [15mer],2.2 ± 0.1 pM
13,GGTTACGGTTACGGTT (ssDNA) [16mer],2.2 ± 0.04 pM
14,GGTTACGGTTACGGTTA (ssDNA) [17mer],2.3 ± 0.1 pM
15,GGTTACGGTTACGGTTAC (ssDNA) [18mer],3.8 ± 0.3 pM
16,GGTTACACGGTTACACGGT (ssDNA) [15mer_2xAC],3.2 ± 0.3 pM

# Molecular target: T8, Pot1-DBD_T62A
# Assay: EMSA
row,Binder,Kd
1,GGTTACGGTTAC (ssDNA) [12mer],48 ± 8 pM
2,GGTTACGGTTACGGT (ssDNA) [15mer],6.2 ± 0.6 pM
